Data as given in patent US20260207704A1, “STAPLED PEPTIDES AND METHODS THEREOF” (priority 2022, published 2026).
*1 amine or outer side, *2 acyl side, *3 side chain or, on linkers, in order; H or OH if unused. Bridges are numbered along the chain shown (N, C = ends). Primed or numbered codes have the meaning given here. [ ]: non-standard residue; d: D form. B5(4) = 2-amino-2-(pent-4-en-1-yl)hept-6-enoic acid, stapled through each of its two olefin groups with other olefin-containing amino acid residues, O=C(C(CCCC=[*:3])(CCCC=[*:4])N[*:1])[*:2]; PyrS2″ = (S)-3-amino-1-((pent-4-en-1-yloxy)carbonyl)pyrrolidine-3-carboxylic acid (olefin stapling residue), C=CCCCOC(=O)N1CC[C@@](N[*:1])(C(=O)[*:2])C1; PyrS2(5) = (S)-3-amino-1-((pent-4-en-1-yloxy)carbonyl)pyrrolidine-3-carboxylic acid, C=CCCCOC(=O)N1CC[C@@](N[*:1])(C(=O)[*:2])C1; 2F3MeF(3) = aromatic amino acid residue, Cc1cccc(C[C@H](N[*:1])C(=O)[*:2])c1F; Phe(3-COOH) = N[C@@H](Cc1cccc(C(=O)O)c1)C(=O)O; 2F3MeF = Cc1cccc(C[C@H](N[*:1])C(=O)[*:2])c1F; Bta = N[C@@H](Cc1csc2ccccc12)C(=O)O; αAllylPro = C=CC[C@@]1(C(=O)O)CCCN1; BztA = aromatic amino acid residue; tBuAla = CC(C)(C)C[C@H](N)C(=O)O; Cha = N[C@@H](CC1CCCCC1)C(=O)O; PyrS2(4) = not defined here; GlnR = not defined here; PL3 = not defined here; B5 = not defined here

B1: I-98 (peptide)
peptide: Ac-[PL3]D[Cha][B5]D[Phe(3-COOH)]AAFK[PyrS2″][2F3MeF(3)][BztA][GlnR]A-NH2
modifications: staple 1-4 (inferred); bridge 10-14; not fully specified (residue 10, bridges); printed as Ac-PL3-Asp-Cha-B5-Asp-3COOHF-Ala-Ala-Phe-Lys*3-PyrS2-2F3MeF-BztA-GlnR*3-Ala-NH2; reading uncertain; also: Lys10 and GlnR14 marked *3
B2: I-103 (peptide)
peptide: Ac-[PL3]D[Cha][B5]D[Phe(3-COOH)][Cha]AFK[PyrS2(4)][2F3MeF][Bta][GlnR]A-NH2
modifications: staple 1-4; bridge 10-14; not fully specified (residue 10); printed as Ac-PL3-Asp-Cha-B5-Asp-3COOHF-Cha-Ala-Phe-Lys*3-PyrS2-2F3MeF-BztA-GlnR*3-Ala-NH2; reading uncertain; also: PyrS2 tied into a staple, partner not placed
B3: I-105 (peptide)
peptide: Ac-[PL3]D[tBuAla][B5]D[Phe(3-COOH)]AAFK[PyrS2(4)][2F3MeF][Bta][GlnR]L-NH2
modifications: staple 1-4; bridge 10-14; not fully specified (residue 10); printed as Ac-PL3-Asp-Npg-B5-Asp-3COOHF-Ala-Ala-Phe-Lys*3-PyrS2-2F3MeF-BztA-GlnR*3-Leu-NH2; reading uncertain; also: PyrS2 tied into a staple, partner not placed
B4: I-100 (peptide)
peptide: Ac-[PL3]D[tBuAla][B5]D[Phe(3-COOH)][tBuAla]AFK[PyrS2(4)][2F3MeF][Bta][GlnR]A-NH2
modifications: staple 1-4; bridge 10-14; not fully specified (residue 10); printed as Ac-PL3-Asp-Npg-B5-Asp-3COOHF-Npg-Ala-Phe-Lys*3-PyrS2-2F3MeF-BztA-GlnR*3-Ala-NH2; reading uncertain; also: PyrS2 tied into a staple, partner not placed
B5: I-92 (peptide)
peptide: Ac-[αAllylPro]D[tBuAla][B5(4)]D[Phe(3-COOH)][GlnR]AFL[PyrS2(5)][2F3MeF(3)][BztA][GlnR](diaminobutane)A-NH2
modifications: staple 1-4 (inferred); not fully specified (bridges); printed as Ac-PL3-Asp-Npg-B5-Asp-3COOHF-GlnR-Ala-Phe-Leu-PyrS2-2F3MeF-BztA-[diaminobutane]GlnR-Ala-NH2; reading uncertain
B6: I-102 (peptide)
peptide: Ac-[PL3]D[tBuAla][B5]D[Phe(3-COOH)][Cha]AFK[PyrS2(4)][2F3MeF][Bta][GlnR]A-NH2
modifications: staple 1-4; bridge 10-14; not fully specified (residue 10); printed as Ac-PL3-Asp-Npg-B5-Asp-3COOHF-Cha-Ala-Phe-Lys*3-PyrS2-2F3MeF-BztA-GlnR*3-Ala-NH2; reading uncertain; also: PyrS2 tied into a staple, partner not placed
B7: I-99 (peptide)
peptide: Ac-[PL3]D[tBuAla][B5]D[Phe(3-COOH)][tBuAla]AFK[PyrS2″][2F3MeF(3)][BztA][GlnR]A-NH2
modifications: staple 1-4 (inferred); bridge 10-14; not fully specified (residue 10, bridges); printed as Ac-PL3-Asp-Npg-B5-Asp-3COOHF-Npg-Ala-Phe-Lys*3-PyrS2-2F3MeF-BztA-GlnR*3-Ala-NH2; reading uncertain; also: Lys10 and GlnR14 marked *3

target: beta-catenin (human); assay: fluorescence polarization
Sequence (B6V8E6 146-665 limits assumed): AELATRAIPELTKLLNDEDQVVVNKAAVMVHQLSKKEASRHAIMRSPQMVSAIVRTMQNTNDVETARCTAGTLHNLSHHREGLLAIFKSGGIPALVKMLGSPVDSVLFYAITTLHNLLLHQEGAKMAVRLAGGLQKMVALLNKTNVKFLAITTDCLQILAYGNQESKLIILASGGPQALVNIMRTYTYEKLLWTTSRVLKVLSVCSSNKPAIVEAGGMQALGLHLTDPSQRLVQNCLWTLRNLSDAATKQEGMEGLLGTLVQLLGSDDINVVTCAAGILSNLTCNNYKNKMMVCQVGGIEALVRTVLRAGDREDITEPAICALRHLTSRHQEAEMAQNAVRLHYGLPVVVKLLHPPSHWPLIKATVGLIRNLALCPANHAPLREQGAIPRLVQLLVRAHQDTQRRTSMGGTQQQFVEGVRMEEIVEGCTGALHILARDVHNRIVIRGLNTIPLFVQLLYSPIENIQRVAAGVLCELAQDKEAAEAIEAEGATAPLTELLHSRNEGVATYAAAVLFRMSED

IC50, < 50 nM:
B1
B2
B3
B4
B5
B6
B7
